Laboratory results taken from the RNAGym collection of RNA variant scans (doi:10.1073/pnas.2313332121).

B1: TPR t1 (parent)
chain: GACCAAUCUGCCCUCAGAGCUCGAGAACAUCUUCGGAUGCAGAGGAGGCAGGCUUCGGUGGCGCGAUAGCGCCAACGUCCUCAACCUCCAAUGCAUCCCACCACAUGAUGAUGCCUGAAGAGCCUUGGUUUUUUG

Variants of: B1
Assay: polymerase ribozyme fitness, log enrichment relative to wild type (log ratio); higher = more active; in vitro selection for triplet polymerase activity
Summary of the method: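 A single round of triplicate in vitro selection, including frozen incubation at −7 °C, was applied to PCR-built, transcribed mutant libraries of each subunit of a heterodimeric triplet polymerase ribozyme. Illumina sequencing of input and output libraries retained genotypes with ≥10 input reads and ≥1 read per output. Fitness is the base-2 logarithm of genotype enrichment divided by wild-type enrichment, from inverse-variance-weighted replicate averages.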

| Variant | polymerase ribozyme fitness (log ratio) |
| --- | --- |
| C8U C40U G47A | -1.72 |
| C72A C94G C102A C115U | -5.19 |
| C28U A121U | 0.361 |
| C12G A16U C72U G93U U112A | -3.35 |
| G39U G60C C62U C97U | -3.98 |
| U21C G35A U130A | -4.76 |
| C4U C53A C64U C88A C123U G127U U131G | -1.35 |
| C20U C56G G63C | -5.5 |
| G48A U54G G71U C85U | -4.47 |
| C40G G71U G117A | -2.71 |
| U9C U78G A103U | -5.95 |
| C82A A91C | -1.72 |
| C15A A37U G52C G63A U87A G120C | -4.33 |
| C13G G44A | -2.85 |
| C13A A41C C73G | -4.43 |
| C40U G60C U96G A118G | -1.31 |
| C56A A95C U106A G128A | -3.3 |
| A41G G48U U112C | 0.49 |
| G71A C79U C123U | 1.66 |
| A105U U133A | -1.78 |
| G48C C49U G71C C102A | -4.66 |

| Variant | polymerase ribozyme fitness (log ratio) |
| --- | --- |
| C34G G61C C99A U112G U116G | -6.27 |
| C15A C88G | -2.59 |
| C8U C28A C72A A83C G110A | 1.02 |
| C49A G60A A121C G122A | 0.833 |
| G44A C70G C101G C114U G128C | -6.56 |
| A27U A84C G120U U125C | -1.52 |
| U21G U55G U112A | 1.42 |
| C40G C72G C82U U106A | -2.01 |
| C11A C89U | -2.53 |
| C15G G57A U132C | -3.99 |
| C40G G48U A105U | -3.14 |
| G36U G77C A91U | -4.63 |
| A41G C99U | -3.39 |
| U14C C56G A119U | -3.8 |
| A29U C40U C49A U106A | -1.76 |
| C49U U92G A121G | -1.61 |
| G120U G135U | -1.2 |
| A100C A111G | 0.924 |
| C34U G120C | -3.96 |
| U21A U116G G122U C124G U126A | -1.21 |
| U9C C72U C102A | -1.5 |

| Variant | polymerase ribozyme fitness (log ratio) |
| --- | --- |
| A27U G47U C86U G110C | -6.45 |
| U9C A27G G45A G57U C115G | -3.94 |
| U38G C62G C86A C124A | -2.75 |
| G10A G19U | -3.62 |
| U9G C13A U59A | -0.0719 |
| C12U C53G C82U G128A | -1.97 |
| G23A G69A U78C G117C | -6.47 |
| U59C G117C | -3.91 |
| C97A U125A | -5.2 |
| C28U C64A A95G C115A U129C U134A | -4.91 |
| G47A C56U U78A C124A U131A | 1.41 |
| U14G C53U C85A C88G | -3.97 |
| G35A G61C A111C | -5.93 |
| A2U C123A | -1.63 |
| U30C C124U | -1.4 |
| A5U A37G | 0.0705 |
| A50U C115U | -2.37 |
| G45U A50U G60A C62U | -1.75 |
| G51U G58C C86A C104U | -3.76 |
| C72G C86G U109A C114A G120C | -5.75 |
| C40U C73G | -0.891 |

| Variant | polymerase ribozyme fitness (log ratio) |
| --- | --- |
| G45U C49U G69U A121U G128C | -1.32 |
| C56U A90U U92A | -1.45 |
| C20U C98U | -1.43 |
| G39U U78C | -0.554 |
| A29U C72G C104U G120C | -0.531 |
| C11G G63U C85U U87C G110A | -2.67 |
| G63A A91C | -4.17 |
| G10C U38G C85U G122A C123G | 0.725 |
| A66C U112A G128C | -4.27 |
| C79G A103G | -5.92 |
| A43G G110C | -2.35 |
| U21G C72G | -1.39 |
| C13A U87A G113A | -2.16 |
| G61A U81A C82A C98U | -1.55 |
| A68G U81A | -4.45 |
| C85U G93A G120U | -0.509 |
| G60A A95G C104A U132C | -2.06 |
| C22U C98U | -4.36 |
| C12A C72G U133C | -1.17 |
| C82A G110C | -3.97 |
